Measurements published in patent publication US20140072563A1 (Regeneron, published 2014).

T1: ErbB3-mFc (human)
T1 construct: Dimeric soluble ErbB3; also called hErbB3.mFc
T1 chain: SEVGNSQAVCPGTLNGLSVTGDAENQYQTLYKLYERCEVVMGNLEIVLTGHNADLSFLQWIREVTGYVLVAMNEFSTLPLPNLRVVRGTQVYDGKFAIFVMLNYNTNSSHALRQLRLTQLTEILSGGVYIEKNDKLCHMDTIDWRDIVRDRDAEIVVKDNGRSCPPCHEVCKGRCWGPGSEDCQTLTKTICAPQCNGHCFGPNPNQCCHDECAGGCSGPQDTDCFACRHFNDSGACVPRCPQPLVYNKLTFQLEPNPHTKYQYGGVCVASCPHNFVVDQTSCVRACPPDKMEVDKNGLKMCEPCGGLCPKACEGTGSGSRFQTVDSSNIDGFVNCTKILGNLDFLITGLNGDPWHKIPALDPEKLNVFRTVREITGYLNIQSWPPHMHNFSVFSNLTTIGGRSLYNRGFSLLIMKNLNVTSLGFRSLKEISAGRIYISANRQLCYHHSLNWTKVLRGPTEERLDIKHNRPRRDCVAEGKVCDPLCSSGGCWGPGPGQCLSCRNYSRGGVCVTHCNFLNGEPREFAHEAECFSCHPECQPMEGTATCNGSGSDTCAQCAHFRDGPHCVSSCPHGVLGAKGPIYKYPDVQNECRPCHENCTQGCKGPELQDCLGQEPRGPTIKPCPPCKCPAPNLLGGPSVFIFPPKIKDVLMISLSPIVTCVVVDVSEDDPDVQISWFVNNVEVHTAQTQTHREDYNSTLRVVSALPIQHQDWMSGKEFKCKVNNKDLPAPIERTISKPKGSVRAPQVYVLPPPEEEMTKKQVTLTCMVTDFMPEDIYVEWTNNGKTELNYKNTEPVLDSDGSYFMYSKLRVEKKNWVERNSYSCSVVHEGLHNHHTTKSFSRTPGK


Biological target: T1, ErbB3-mFc
Test: blocking ELISA: antibody (0-50 nM) + 50 pM ErbB3-mFc, binding to coated neuregulin1b
Text: To further characterize anti-hErbB3 mAbs of the present invention, their ability to block ligand binding was examined via ELISA. […] Plates were washed and non-sequestered (plate bound) ErbB3 was detected with an anti-Fc poly conjugated with horseradish peroxidase (HRP). Plates were developed with TMB (3,3′,5,5′-tetramethylbenzidine) and neutralized with sulfuric acid before reading absorbance at 450 nm on a Victor X5 plate reader. Data analysis used a sigmoidal dose-response model within Prism™ software. […] Maximal blocking for each antibody was calculated by taking the difference in absorbance from zero to 50 nM antibody on the inhibition curve, divided by the difference in absorbance from 50 pM to zero ErbB3 on the dose curve.

| IC50 [nM] | Maximal Blocking (%) | Binder |
| --- | --- | --- |
| 0.0664 | 99 | H4H2290P (antibody, human IgG4, V domains shown, Human IgG4 Fc (prefix H4H)) VH: EVQLLESGGGLVQPGGSLRLSCVASGFTFSSFAMSWVRQAPGKGLEWVSVISGSGGSTNHADSVRGRFTISRDNSLNTVYLQMHSLRAEDTALYYCVKAETSSSYFYYGMDVWGQGTTVTVSS VL: DIQLTQSPSFLSASVGDRVTITCWASQDISSYLAWYQQKPGKVPNLLIYGASSLQPGVPSRFSGSGSGTEFTLTISSLQPEDFATYYCQQLNNYPTFGGGTKLEIKR |
| 0.0901 | 91 | H4H2154P (antibody, human IgG4, V domains shown, Human IgG4 Fc (prefix H4H)) VH: QVQLQESGPGLINPSQTLSVTCTVSGGSISSGGYYWTWIRQHPGKGLEWIGYISYSGNTNYNPSLKSRVTISVDTAKNQFSLKLSSVTAADTAVYFCARDSDVDTAMVDGIDIWGQGTMVTVSS VL: DIQMTQSPSSVSASVGDRVTITCRASQDISSWLAWYQQKPGRAPKLLIYTASSLQSGVPSRFSGSGSGTDFTLTISSLQPEDFATYFCQQANSFPFTFGPGTKVDIKR |

biological target: ErbB3 (cell surface, on MCF-7, DU145, A431 and MCF7 cells) (human, UniProt P21860 20-1342); test: cell-based or functional assay

| Percent inhibition of Akt phosphorylation, 0.01 µg/ml ErbB3 antibody, DU145 cells + 0.5 nM NRG1 [%] | Percent inhibition of Akt phosphorylation, 0.1 µg/ml ErbB3 antibody, DU145 cells + 0.5 nM NRG1 [%] | Percent inhibition of Akt phosphorylation, 0.5 µg/ml ErbB3 antibody, DU145 cells + 0.5 nM NRG1 [%] | Binder |
| --- | --- | --- | --- |
| 39 | 64 | 66 | H2M1930N (antibody, mouse IgG2, V domains shown) VH: EVQLVESGGGLVKPGGSLRLSCVASGFTFSSYNMNWVRQAPGKGLEWVSFISGSSNYIHYADSVKGRFTISRDNAKNALYLQMNSLRAEDTAVYYCARDDGDYDWFDPWGQGTLVTVSS VL: EIVLTQSPGTLSLSPGERATLSCRASQSVSSSYLAWYQQKPGQAPRLLIYGTSSRATGIPDRFSGSGSGTDFTLTISRLEPEDFAVYYCQQYDNSYTFGQGTKLEIK |
| 20 | 56 | 67 | H2M1934N (antibody, mouse IgG2, V domains shown) VH: EVQLVQSGGGLVKPGGSLRLSCAASGFTFSNFNMNWVRQAPGKGLEWVSFISSLSTYTYYADSVKGRFTISRDNAKNSLYLQMNSLRAEDTAVYYCARDDGDHDWFDPWGQGTLVTVSS VL: EIVLTQSPDTLSLSPGERATLSCRASQSVSSNYLAWYQQKPGQAPRLLIYSASNRATGIPDRFSGSGSGTDFTLTISRLEPEDFAVYYCQQYDSSYTFGQGTKLEIK |
| 11 | 68 | 73 | H2M1821N (antibody, mouse IgG2, V domains shown) VH: EVQLVESGGGLVQPGRSLRLSCAASGFTFDDYAMHWVRQAPGKGLEWVSSISWNSGSIGYADSVKGRFTISRDNAKNSLYLQMNSLKPEDTALYYCTKDTDYGDYLDAFDIWGQGTMVAVAS VL: not shown |
| -13 | 41 | 71 | H2M1937N (antibody, mouse IgG2, V domains shown) VH: QVQLQQWDAGLLKPSETLSLTCAVYGGSFSSYYWSWIRQPPGKGLEWIGEINHRGSTNYNPSLKSRVTISVDTSKNQFSLKLRSVTAADTAVYYCARGGVAARPDWHFFDYWGQGTLVTVSS VL: DIQMTQSPSSLSASVGDRVTITCRASQVIRNDLGWFQQRPGKAPKRLIYAASSLQSEVPSRFSGSGSGTEFTLTITSLQPEDFATYYCLQHNSYPLTFGQGTRLEIK |
| 29 | 72 | 75 | H1M1819N (antibody, V domains shown) VH: EVQLVESGGGVVRPGGSLRLSCAASGFTFDDYAMHWVRQAPGKGLEWVAGISWNSGSIDYADSVKGRFTISRDNAKNSLYLQMNSLRAGDTALYYCAKDILDLDYYGLDVWGQGTTVTVSS VL: DIQMTQSPSSLSASVGDRVTITCRASQDISSYLAWYQQKPGKVPNLLIYDASSLQSGVPSRFSGSGSGTDFTLTLSSLQPEDFASYYCQNYNSAPYTFGQGTKLEIK |
| 6 | 30 | 67 | H2M1936N (antibody, mouse IgG2, V domains shown) VH: EMQLVESGGGLVQPDRSLRLSCAASGFNFDNYAIHWVRQAPGKGLEWVSGISWNSGNIGYADSVKGRFTISRDNAKNSLFLLMNSLRPDDSALYYCTRGYNWNALSPMDVWGQGTTVTVSS VL: DIQMTQSPSSLSASVGDRVTVTCRASQGISNYLAWYQQKPGKVPKLLIYAASTLQSGVPSRFSGSGSGTDFTLTISSLQPEDVASYYCQNYNSAPMTFGQGTKVEIK |
| 25 | 63 | 74 | H2M1824N (antibody, mouse IgG2, V domains shown) VH: EVQLVESGGGVVRPGGSLRLSCAASGFTFDDYGMSWVRQAPGKGLECVSGINWNGGSTDYADSVKGRFTISRDNAKNSLYLQMNSLRAEDTASYYCARDGGDWDYFDLWGRGTLVTVSS VL: EIVMTQSPATLSVSPGERATLSCRASQSVSSNLAWYQQKPGQAPRLLIYGASTRATGIPARFSGSGSGTEFTLTISSLQSEDFAVYFCQEYNDWPLTFGGGTKVEIK |
| 22 | 74 | 74 | H2M1829N (antibody, mouse IgG2, V domains shown) VH: EVQLVESGGGVVRPGGSLRLSCVASGFTFDDYGMSWVRQAPGKGLECVSGINWNGGSTDYADSVKGRFTISRDNAKNSLYLQMNSLRAEDTALYHCARDGGDWDYFDLWGRGTLVTVSS VL: EILMTQSPATLSVSPGERATLSCRASQSVSSNLAWYQQKPGQAPRLLIYGASTRATGIPARFSGSGSGTEFTLTISSLQSEDFAIYYCQEYNDWPLTFGGGTKVEIK |
| 16 | 73 | 75 | H2M1827N (antibody, mouse IgG2, V domains shown) VH: EVQLVESGGGVVRPGGSLRLSCAASGFTFDDYGMSWVRQAPGKGLECVSGISWNGGNTDYADSVKGRFTISRDNAKNSLYLQMNSLRAEDTALYHCARDGGDWDYFDLWGRGTLVTVSS VL: EILMTQSPATLSVSPGERATLSCRASQSVSSNLAWYQQKPGQAPRLLIYGASTRATGIPARFSGSGSGTEFTLTISSLQSEDFAIYYCQEYNDWPLTFGGGTKVEIK |
| 40 | 63 | 74 | H2M1938N (antibody, mouse IgG2, V domains shown) VH: EVQLVESGGGVVRPGGSLRLSCAASGFTFDDYGMSWVRQVPGKGLEWVSGLNWNGGITGYTDSVKGRFTISRDNAKNSLYLQMNSLRAEDTAFYHCARDSGDQDAFDIWGQGTMVTVSS VL: QIVMTQSPATLSVSPGERATLSCRASQSITPYLAWYQQKPGQTPRLLIYGVSTRATGIPARFSGSGSGTEFTLTISSLQSEDFAVYYCQQYDNWYTFGQGTKLEIK |
| 13 | 50 | 68 | H1M1940N (antibody, V domains shown) VH: QVQVVESGGGVVQPGRSLRLSCAASGFTFSDYGMHWVRQAPGKGLEWVAIISYDGSNKYYADSVKGRFTVSRDNSKNTLYLQLDSLRPEDAAVFYCAREGAFNLDYYAMDVWGQGTTVTVSS VL: AIQMTQSPSSLSASVGDRVTITCRASQDIRNDLGWYQQKPGKAPNLLIYAASSLQSGVPSRFSGSGSGTDFTLTISSLQPEDFATYYCLQDSNYPLTFGGGTKVEIK |
| 22 | 66 | 75 | H1M1828N (antibody, V domains shown) VH: EVQLVESGGGLVQPGRSLRLSCAASGFTFDDYAMYWVRQAPGKGLEWVSGISWNSGSIGYADSVKGRFTISRDNAKNSLYLQMDSLRAEDTALYYCARDMMEVDLYGMDVWGQGTTVTVSS VL: DIQMTQSPSSVSASVGDRVTITCRASQDISSWLAWYQQKPGTAPKFLIYETSSLQSGVPSRFSGSGSGTDFILTISSLQPEDFATYYCQQTDSFPHTFGQGTKLEIR |
